Data taken from the supplement of paper PMC10567573.

B1: LOC100129726 (parent)
chain: AKAADSPTRNDLESGLGHFSLRVH

Variants of: B1
Assay: protein stability index of a GFP-peptide fusion (GPS, HEK-293T) (PSI 1-6); higher = more stable
Conditions: c terminus: a fixed tail appended
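Also: lentivirally expressed fusions sorted by FACS into six bins by GFP to DsRed ratio, PSI derived from sequencing read proportions per bin multiplied by bin number.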

Protein stability index of substitutions, site by site:
F19: W 2.76; V 3.58; Y 3.16; R 4.28; S 4.61; T 4.66
L21: W 3.45; Q 4; E 4.38; P 4.25; G 4.79; D 5.01; T 4.08; N 4.3; A 4.25; C 4.2; M 3.6; K 3.5; S 4.39; R 2.98; I 2.33; F 2.38; V 3.84; Y 3.06; H 3.55
R22: Y 2.31; N 3.62; F 2.43; W 2.4; S 2.98; K 3.59; C 2.27; Q 2.73; H 3.25; T 2.8; V 2.71; M 2.61; E 3.92; G 3.5; I 2.61; L 2.7; D 4.28; A 3.47; P 4
H24: D 3.63; M 2.25; G 2.64; K 3.92; E 3.75; P 3.73; W 2.09; N 4.15; I 1.9; L 2.59; F 2.32; Q 3.53; T 3.41; Y 1.58; R 2.79; V 2.61; C 2.49; S 3.6; A 2.92
V23: Q 3.58; G 4.16; H 3.55; Y 2.61; A 3.67; R 4.03; S 3.48; E 4.69; L 2.88; T 3.49; C 3.45; D 4.68; I 2.42; F 2.14; P 4.13; K 4.43; N 3.43; W 2.14; M 3.29
S20: L 2.09; A 3.29; T 3.1; F 2.05; M 2.87; K 3.4; P 3.81; E 3.72; G 3.11; Y 1.58; H 3.35; W 2.25; D 3.46; Q 3.17; C 2.45; I 1.48; N 3.45; R 2.19; V 2.21
